Reference: PMC4623810

Experiments:
Assay in all cases: SPR; Biacore X100; CagA immobilised on CM5 chip by amine coupling, SHP2 or SHP2/SH2 as analyte; KD from Scatchard plots; three independent measurements
[1] = target: pY-CagA(C2)-His (tyrosine-phosphorylated Western CagA with two EPIYA-C segments) (Helicobacter pylori)
[2] = target: pY-CagA(C1)-His (tyrosine-phosphorylated Western CagA with one EPIYA-C segment) (Helicobacter pylori)
[3] = target: pY-CagA(C3)-His (tyrosine-phosphorylated Western CagA with three EPIYA-C segments) (Helicobacter pylori)
[4] = target: pY-CagA(C5)-His (tyrosine-phosphorylated Western CagA with five EPIYA-C segments) (Helicobacter pylori)
[5] = target: pY-CagA(C8)-His (tyrosine-phosphorylated Western CagA with eight EPIYA-C segments) (Helicobacter pylori)

B1: full-length SHP2 (recombinant) (enzyme)
chain: MTSRRWFHPNITGVEAENLLLTRGVDGSFLARPSKSNPGDFTLSVRRNGAVTHIKIQNTGDYYDLYGGEKFATLAELVQYYMEHHGQLKEKNGDVIELKYPLNCADPTSERWFHGHLSGKEAEKLLTEKGKHGSFLVRESQSHPGDFVLSVRTGDDKGESNDGKSKVTHVMIRCQELKYDVGGGERFDSLTDLVEHYKKNPMVETLGTVLQLKQPLNTTRINAAEIESRVRELSKLAETTDKVKQGFWEEFETLQQQECKLLYSRKEGQRQENKNKNRYKNILPFDHTRVVLHDGDPNEPVSDYINANIIMPEFETKCNNSKPKKSYIATQGCLQNTVNDFWRMVFQENSRVIVMTTKEVERGKSKCVKYWPDEYALKEYGVMRVRNVKESAAHDYTLRELKLSKVGQGNTERTVWQYHFRTWPDHGVPSDPGGVLDFLEEVHHKQESIMDAGPVVVHCSAGIGRTGTFIVIDILIDIIREKGVDCDIDVPKTIQMVRSQRSGMVQTEAQYRFIYMAVQHYIETLQRRIEEEQKSKRKGHEYTNIKYSLADQTSGDQSPLPPCTPTPPCAEMREDSARVYENVGLMQQQKSFR
B1 gave a Kd [1] of 369 nM.

B2: SHP2/SH2 (recombinant N-terminal SHP2 fragment containing two SH2 domains, analyte of the SPR) (domain or fragment)
chain: MTSRRWFHPNITGVEAENLLLTRGVDGSFLARPSKSNPGDFTLSVRRNGAVTHIKIQNTGDYYDLYGGEKFATLAELVQYYMEHHGQLKEKNGDVIELKYPLNCADPTSERWFHGHLSGKEAEKLLTEKGKHGSFLVRESQSHPGDFVLSVRTGDDKGESNDGKSKVTHVMIRCQELKYDVGGGERFDSLTDLVEHYKKNPMVETLGTVLQLKQPLNTTR
With B2 the Kd [2] was 24100 nM, the Kd [1] was 208 nM and the Kd [3] was 123 nM. The Kd [4] was 77.8 nM and the Kd [5] was 40.1 nM.
